{"source": "paper PMC11070302", "about": "(Drug resistance updates : reviews and commentaries in …, 2024)", "proteins": {"B1": {"name": "PEPD^G278D, a recombinant and enzymatically inactive mutant of human peptidase D (enzyme, UniProt P12955 1-493, looked up)", "chain": "MAAATGPSFWLGNETLKVPLALFALNRQRLCERLRKNPAVQAGSIVVLQGGEETQRYCTDTGVLFRQESFFHWAFGVTEPGCYGVIDVDTGKSTLFVPRLPASHATWMGKIHSKEHFKEKYAVDDVQYVDEIASVLTSQKPSVLLTLRGVNTDSGSVCREASFDGISKFEVNNTILHPEIVECRVFKTDMELEVLRYTNKISSEAHREVMKAVKVGMKEYELESLFEHYCYSRGGMRHSSYTCICGSGENSAVLHYGHAGAPNDRTIQNGDMCLFDMDGEYYCFASDITCSFPANGKFTADQKAVYEAVLRSSRAVMGAMKPGVWWPDMHRLADRIHLEELAHMGILSGSVDAMVQAHLGAVFMPHGLGHFLGIDVHDVGGYPEGVERIDEPGLRSLRTARHLQPGMVLTVEPGIYFIDHLLDEALADPARASFLNREVLQRFRGFGGVRIEEDVVVTDSGIELLTCVPRTVEEIEACMAGCDKAFTPFSGPK"}}, "molecular_target": "the molecule itself", "assay": "non-reducing SDS-PAGE and protein staining", "data": [{"protein": "B1", "values": [{"measurement": "stoichiometry N", "result": 2}]}]}
